Target: GST-Kar2p (S. cerevisiae) (UniProt P16474)
Assay: pull-down

B1: His-Sil1p (natural protein)
chain: TILHSSIHSVPSGGEIISAEDLKELEISGNSICVDNRCYPKIFEPRHDWQPILPGQELPGGLDIRINMDTGLKEAKLNDEKNVGDNGSHELIVSSEDMKASPGDYEFSSDFKEMRNIIDSNPTLSSQDIARLEDSFDRIMEFAHDYKHGYKIITHEFALLANLSLNENLPLTLRELSTRVITSCLRNNPPVVEFINESFPNFKSKIMAALSNLNDSNHRSSNILIKRYLSILNELPVTSEDLPIYSTVVLQNVYERNNKDKQLQIKVLELISKILKADMYENDDTNLILFKRNAENWSSNLQEWANEFQEMVQNKSIDELHTRTFFDTLYNLKKIFKSDITINKGFLNWLAQQCKARQSNLDNGLQERDTEQDSFDKKLIDSRHLIFG
Work on B1 yielded a reduction of binding in the presence of ATP of 50%.

From article PMC2898433
